Consider 53 sequences from the supplement of paper PMC10567573.

± gives the standard deviation.

The nature of the data set: protein stability index of a GFP-peptide fusion (GPS, HEK-293T) (PSI 1-6); higher = more stable. As to conditions: c terminus: a fixed tail appended.
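Further: 24-mer peptide tiles fused after GFP, lentivirally expressed, FACS-sorted into six equal bins by GFP/DsRed ratio, decoded by Illumina sequencing, PSI is the read-weighted mean bin number.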

Take KCILKTPGKINCLRNCKTYQARKP [RHOBTB3]: the protein stability index was 2.98 ± 0.17 (treatment: DMSO) and 3.03 ± 0.26 (treatment: MLN4924 1 uM, 8 h).

With KCKPSLPAEAEGAAQELENQMKER [TMEM120A], the protein stability index by setting is: (treatment: DMSO) 5.42 ± 0.19; (treatment: MLN4924 1 uM, 8 h) 5.49 ± 0.2.

On to KCLSIMLAEWEANPLICPVCTKYN [RPAIN], for which the protein stability index by setting is: (treatment: DMSO) 2.8 ± 0.73; (treatment: MLN4924 1 uM, 8 h) 2.29 ± 0.19.

For the sequence KDPRDPEESKEPKEEKQRRRCKPK [GNAS], the protein stability index runs as follows: (treatment: DMSO) 5.37 ± 0.26; (treatment: MLN4924 1 uM, 8 h) 5.26 ± 0.3.

KDRRFAYGRSDVVVLCFSIANPNS [RHOBTB1]: the protein stability index reads like this: (treatment: DMSO) 2.74 ± 0.54; (treatment: MLN4924 1 uM, 8 h) 2.34 ± 0.46.

As for KEAVTGSRLGQGIGPIHLNEIQCT [LOXL2], the protein stability index reads like this: (treatment: DMSO) 3.77 ± 0.61; (treatment: MLN4924 1 uM, 8 h) 3.93 ± 0.47.

Consider KEPATMSWLEENVHEVLQAVDAGD [TCF25], for which the protein stability index runs as follows: (treatment: DMSO) 5.05 ± 0.25; (treatment: MLN4924 1 uM, 8 h) 5.13 ± 0.17.

Regarding KETDPLTFNFISSLKAICTEIANC [PLD5], the protein stability index is, setting by setting: (treatment: DMSO) 2 ± 0.27; (treatment: MLN4924 1 uM, 8 h) 2.05 ± 0.1.

Consider KEVMLFGHGTRKRVPLGRLELLEE [RSAD1], for which the protein stability index is, setting by setting: (treatment: DMSO) 3.6 ± 0.19; (treatment: MLN4924 1 uM, 8 h) 3.59 ± 0.28.

KEYAAKFIKKRRLSSSRRGVSREE [DAPK3]: the protein stability index is 4.15 ± 0.15 (treatment: DMSO) and 4.379 ± 0.041 (treatment: MLN4924 1 uM, 8 h).

For the sequence KGAAAAAAASGAAGGGGGGAGAGA [INTS3], the protein stability index (treatment: DMSO) worked out at 5.26 ± 0.42 and the protein stability index (treatment: MLN4924 1 uM, 8 h) is 5.3 ± 0.27.

In the case of KGALQKKPLYVAFSFMYILVGLTV [KCNK9], the protein stability index was found to be 3.46 ± 0.47 (treatment: DMSO) and 2.85 ± 0.51 (treatment: MLN4924 1 uM, 8 h).

With KGAPASWWNHMHFQHHAKPNCFRK [FADS1], the protein stability index was determined as 2.87 ± 0.18 (treatment: DMSO) and 3.01 ± 0.43 (treatment: MLN4924 1 uM, 8 h).

As for KGGNLRDKLDGNELDLSLSDLNEV [LRRC59], the protein stability index runs as follows: (treatment: DMSO) 4.86 ± 0.075; (treatment: MLN4924 1 uM, 8 h) 5.11 ± 0.17.

As to KGKDNKHPMYRRLVHSAVDVPTIQ [ZMYND11], the protein stability index reads like this: (treatment: DMSO) 3.71 ± 0.18; (treatment: MLN4924 1 uM, 8 h) 3.71 ± 0.28.

For the sequence KHSNKKVMRTKSSEKAANDDHSVR [CPXM2], the protein stability index was found to be 5.13 ± 0.29 (treatment: DMSO) and 5.2 ± 0.22 (treatment: MLN4924 1 uM, 8 h).

For KIDYCASSNHGCQHECVNTDDSYS [MATN2], the protein stability index (treatment: DMSO) worked out at 4.37 ± 0.18 and the protein stability index (treatment: MLN4924 1 uM, 8 h) is 4.5 ± 0.18.

Turning to KKKPGTAMCVGCGSQIHDQFILRV [ISL2], the protein stability index reads like this: (treatment: DMSO) 2.36 ± 0.37; (treatment: MLN4924 1 uM, 8 h) 2.23 ± 0.29.

Consider KKLRFHPKQLYFSARQGELQKVLL [EHMT1], for which the protein stability index is, setting by setting: (treatment: DMSO) 3.28 ± 0.71; (treatment: MLN4924 1 uM, 8 h) 2.63 ± 0.45.

Regarding KLEPIKSRAPQLHLEYRFYKQLGS [CSNK1G1], the protein stability index is, setting by setting: (treatment: DMSO) 2.06 ± 0.76; (treatment: MLN4924 1 uM, 8 h) 2.27 ± 0.21.

In the case of KLFDVPSLNGVYPRMNEVYTRLGE [CEP70], the protein stability index reads like this: (treatment: DMSO) 2.65 ± 0.17; (treatment: MLN4924 1 uM, 8 h) 2.53 ± 0.34.

As to KLKLVALHKQVLMGPYNPDTCPEV [ACBD3], the protein stability index is 2.38 ± 0.28 (treatment: DMSO) and 2.72 ± 0.32 (treatment: MLN4924 1 uM, 8 h).

KLNLPDYHKIIKNPMDMGTIKKRL [BRD3]: the protein stability index runs as follows: (treatment: DMSO) 2.41 ± 0.17; (treatment: MLN4924 1 uM, 8 h) 2.48 ± 0.42.

In turn, KMGGKDFSFRYQQELEEEIKELYE [ATL3] displayed a protein stability index (treatment: DMSO) of 2.52 ± 0.51 and a protein stability index (treatment: MLN4924 1 uM, 8 h) of 2.87 ± 0.32.

As for KMNFSTLRNIQGLFAPLKLQMEFK [POMP], the protein stability index is, setting by setting: (treatment: DMSO) 2.2 ± 0.36; (treatment: MLN4924 1 uM, 8 h) 2.02 ± 0.098.

In turn, KNGLPSPERSYVFNGDFVDRGKDS [PPEF2] showed a protein stability index (treatment: DMSO) of 4.7 ± 0.079 and a protein stability index (treatment: MLN4924 1 uM, 8 h) of 4.76 ± 0.18.

Regarding KNRYANVIAYDHSRVLLSAIEGIP [PTPRD], the protein stability index reads like this: (treatment: DMSO) 2.27 ± 0.82; (treatment: MLN4924 1 uM, 8 h) 2.26 ± 0.4.

In the case of KPVDIWACGVILYILLVGYPPFWD [CAMK2B], the protein stability index is, setting by setting: (treatment: DMSO) 3.27 ± 0.31; (treatment: MLN4924 1 uM, 8 h) 3.03 ± 0.17.

The sequence KPVGRQACDLQPCPTEPPDDSCQD [ADAMTSL2] registered a protein stability index (treatment: DMSO) of 5.46 ± 0.34 and a protein stability index (treatment: MLN4924 1 uM, 8 h) of 5.76 ± 0.075.

With KPYACDECAKAFSRSAILIQHRRT [ZNF396], the protein stability index came to 2.12 ± 0.11 (treatment: DMSO) and 2.37 ± 0.19 (treatment: MLN4924 1 uM, 8 h).

For the sequence KRRQLEDERRQLQHLKSKALRERW [PALM], the protein stability index by setting is: (treatment: DMSO) 3.93 ± 0.3; (treatment: MLN4924 1 uM, 8 h) 4.22 ± 0.57.

As for KSFSMANGMNAVMMHGRSYSLASG [RAB40C], the protein stability index came to 3.08 ± 0.26 (treatment: DMSO) and 3.03 ± 0.098 (treatment: MLN4924 1 uM, 8 h).

For the sequence KSNFRVQLFEDPTVDKEVEIRKKV [MNAT1], the protein stability index reads like this: (treatment: DMSO) 4.65 ± 0.33; (treatment: MLN4924 1 uM, 8 h) 4.69 ± 0.38.

On to KSQIMSLSHSPQEDWVLLGMANGQ [TLE6], for which the protein stability index runs as follows: (treatment: DMSO) 3.15 ± 0.2; (treatment: MLN4924 1 uM, 8 h) 3.12 ± 0.17.

KSRLVQLPPVAVRSLQDLARIAIR [PCMTD2]: the protein stability index reads like this: (treatment: DMSO) 3.52 ± 0.19; (treatment: MLN4924 1 uM, 8 h) 3.7 ± 0.073.

KSSGKHYGQFTCEGCKSFFKRSVR [NR2F2]: the protein stability index is, setting by setting: (treatment: DMSO) 2.37 ± 0.18; (treatment: MLN4924 1 uM, 8 h) 2.68 ± 0.41.

On to KSTSIQVIVKEGGLKLIQIQDNGT [MLH1], for which the protein stability index stood at 2.18 ± 0.53 (treatment: DMSO) and 2.54 ± 0.56 (treatment: MLN4924 1 uM, 8 h).

Take KTIKRPFGVKYNPYTRSIQILKDT [TPH1]: the protein stability index (treatment: DMSO) came out at 2.35 ± 0.2 and the protein stability index (treatment: MLN4924 1 uM, 8 h) was found to be 2.19 ± 0.22.

With KVKKSGSRVMFLLVDKETDKRHVE [PDZK1], the protein stability index (treatment: MLN4924 1 uM, 8 h) turned out to be 3.4 ± 0.19.

Sequence KVLRKAGLSAGYVDAGAEPGRSRM [LPCAT4] returned a protein stability index (treatment: DMSO) of 3.6 ± 0.31 and a protein stability index (treatment: MLN4924 1 uM, 8 h) of 3.73 ± 0.25.

Take KVPSEAPSPMPTHRSYLGPGSTSP [SLC6A17]: the protein stability index was 4.66 ± 0.069 (treatment: DMSO) and 4.71 ± 0.32 (treatment: MLN4924 1 uM, 8 h).

For the sequence KVVQSLLNHGASVNNTTLTNSTPL [FEM1C], the protein stability index was 2.77 ± 0.21 (treatment: DMSO) and 2.83 ± 0.24 (treatment: MLN4924 1 uM, 8 h).

The sequence KWKVGIPSDPLVSIGALISKAHLE [ALDH8A1] displayed a protein stability index (treatment: DMSO) of 2.48 ± 0.11 and a protein stability index (treatment: MLN4924 1 uM, 8 h) of 2.74 ± 0.17.

On to KWTACSRSCGGGVTSQERHCLQQR [ADAMTSL2], for which the protein stability index was 2.75 ± 0.51 (treatment: DMSO) and 3.37 ± 0.59 (treatment: MLN4924 1 uM, 8 h).

The sequence LAGQKDELQLSDLLKQGYNKTLLR [PKD2L1] displayed a protein stability index (treatment: DMSO) of 3.24 ± 0.23 and a protein stability index (treatment: MLN4924 1 uM, 8 h) of 3.39 ± 0.4.

With LAHAFQPGPGIGGDAHFDEDERWT [MMP1], the protein stability index runs as follows: (treatment: DMSO) 4.73 ± 0.14; (treatment: MLN4924 1 uM, 8 h) 4.53 ± 0.21.

LAVGTDLYGQRNSAPEQELLVQDA [GFOD1]: the protein stability index (treatment: DMSO) came to 4.66 ± 0.22 and the protein stability index (treatment: MLN4924 1 uM, 8 h) turned out to be 4.69 ± 0.36.

On to LCKIGSERSLVLDRLASNVAKRKS [IKZF1], for which the protein stability index was 3.83 ± 0.24 (treatment: DMSO) and 3.93 ± 0.28 (treatment: MLN4924 1 uM, 8 h).

Turning to LCQKQVKAQLPRRESERRNHSLAR [FBXO28], the protein stability index came to 3.81 ± 0.14 (treatment: DMSO) and 4.23 ± 0.17 (treatment: MLN4924 1 uM, 8 h).

On to LDEIPDDEDLDLIPPKSVNPTCMC [FAM219A], for which the protein stability index reads like this: (treatment: DMSO) 5.07 ± 0.16; (treatment: MLN4924 1 uM, 8 h) 5.16 ± 0.31.

Sequence LDGALRTFLKAFPLMGETQERERV [PSD2] registered a protein stability index (treatment: DMSO) of 2.96 ± 0.098 and a protein stability index (treatment: MLN4924 1 uM, 8 h) of 2.88 ± 0.25.

As for LDGLIQQCGETMKETVNVKTVCGY [GMCL1], the protein stability index is, setting by setting: (treatment: DMSO) 3.1 ± 0.33; (treatment: MLN4924 1 uM, 8 h) 3.37 ± 0.36.

With LDQLLDMPAAGLAVQLRHAWNPED [SPSB4], the protein stability index turned out to be 3.44 ± 0.28 (treatment: DMSO) and 3.68 ± 0.16 (treatment: MLN4924 1 uM, 8 h).
